Measured values: the RNAGym collection of RNA variant scans (doi:10.7554/elife.80360)

B1: CPEB3 Ribozyme (parent)
chain: GGGGGCCACAGCAGAAGCGUUCACGUCGCGGCCCCUGUCAGAUUCUGGUGAAUCUGCGAAUUCUGCUGU

Variants of: B1
Assay: self-cleavage, relative activity (ratio to wild type); higher = more cleavage; co-transcriptional

Going from C32U U62G to C33A U44G, the self-cleavage falls from 0.864 to 0.374.

Compared with C33A U44A, C33A U44C is higher in self-cleavage: 0.313 for the first, 0.656 for the second.

Compared with C32A A51G, C33A U49G is higher in self-cleavage: 0.521 for the first, 0.981 for the second.

Compared with C33A U49C, C33A U49A is higher in self-cleavage: 0.926 for the first, 0.965 for the second.

Going from C32U U36G to C32U U55A, the self-cleavage rises from 0.297 to 0.989.

Going from C32U U55G to C33G C39G, the self-cleavage falls from 0.896 to 0.513.

Going from C33G C39U to C33G C39A, the self-cleavage rises from 0.337 to 0.387.

Going from C32A C45G to C33A C45U, the self-cleavage rises from 0.667 to 0.799.

Compared with C32A U49C, C32A U49A is higher in self-cleavage: 0.704 for the first, 0.871 for the second.

First: C32U U46A
Second: C32U U46G
The self-cleavage of the first is higher: 1 for the first, 0.951 for the second.

Compared with C32U U46C, C32U A52G is lower in self-cleavage: 1 for the first, 0.967 for the second.

Going from C32U A52U to C33A U67A, the self-cleavage falls from 0.987 to 0.977.

Compared with C33A U67G, C32A C39A is lower in self-cleavage: 1.01 for the first, 0.434 for the second.

Compared with C32A C39U, C33A C63G is higher in self-cleavage: 0.388 for the first, 0.513 for the second.

Compared with C33G G37A, C33G G37U is lower in self-cleavage: 0.299 for the first, 0.245 for the second.

Going from C32G U44G to C32G U44A, the self-cleavage falls from 0.426 to 0.385.

Compared with C33A C35G, C33A C35U is higher in self-cleavage: 0.204 for the first, 0.442 for the second.

First: C33A C35A
Second: C33G C57U
The self-cleavage of the first is lower: 0.151 for the first, 0.316 for the second.

Compared with C33G C57G, C33G C57A is higher in self-cleavage: 0.259 for the first, 0.38 for the second.

First: C33A U61A
Second: C33A U61C
The self-cleavage of the first is higher: 0.599 for the first, 0.45 for the second.

Going from G31U U61A to G31U U61G, the self-cleavage rises from 0.289 to 0.351.

Compared with C32U A60G, C32A U38C is lower in self-cleavage: 0.906 for the first, 0.504 for the second.

Compared with C32A U38G, C33G A60C is higher in self-cleavage: 0.271 for the first, 0.415 for the second.

Going from C33G A60G to C33G A60U, the self-cleavage falls from 0.372 to 0.328.

Going from C32G A40G to C32G A40U, the self-cleavage falls from 0.442 to 0.281.

Compared with C32G A40C, C33G G41U is lower in self-cleavage: 0.308 for the first, 0.268 for the second.

First: C32G G65A
Second: C32G G65C
The self-cleavage of the first is higher: 0.288 for the first, 0.224 for the second.

Compared with C33A G58C, C33A G58U is higher in self-cleavage: 0.837 for the first, 0.881 for the second.

First: C32G U55G
Second: C32G U55C
The self-cleavage of the first is lower: 0.218 for the first, 0.258 for the second.

First: C32G G68A
Second: C32G G68C
The self-cleavage of the first is higher: 0.808 for the first, 0.768 for the second.

First: C32G C45G
Second: C33A G56C
The self-cleavage of the first is lower: 0.434 for the first, 0.488 for the second.

First: C33A G56U
Second: C32U A42G
The self-cleavage of the first is lower: 0.756 for the first, 0.914 for the second.

First: C32U A42C
Second: C32U A42U
The self-cleavage of the first is higher: 0.961 for the first, 0.933 for the second.

First: C32U G50A
Second: C32U G50U
The self-cleavage of the first is higher: 0.995 for the first, 0.978 for the second.

Going from G31U U46A to G31U U46G, the self-cleavage falls from 0.785 to 0.638.

First: G31U U46C
Second: C33G G47A
The self-cleavage of the first is higher: 0.725 for the first, 0.663 for the second.

Compared with C33G G47C, C33G G47U is higher in self-cleavage: 0.638 for the first, 0.682 for the second.

Compared with G31U U44C, C32A A42U is lower in self-cleavage: 0.618 for the first, 0.504 for the second.

First: C32A A42C
Second: C33A G37A
The self-cleavage of the first is higher: 0.342 for the first, 0.26 for the second.

Compared with C33A G37U, C33A G68U is higher in self-cleavage: 0.12 for the first, 0.904 for the second.

Going from C33A G68A to C33G G48A, the self-cleavage falls from 0.951 to 0.648.

First: C33G G48U
Second: C33G G48C
The self-cleavage of the first is lower: 0.579 for the first, 0.629 for the second.

First: C32U U49A
Second: C32G U69C
The self-cleavage of the first is higher: 1.01 for the first, 0.839 for the second.

Compared with C33A A60G, C33A A60U is higher in self-cleavage: 0.378 for the first, 0.38 for the second.

First: C33A C66G
Second: C33A C66A
The self-cleavage of the first is lower: 0.665 for the first, 0.76 for the second.

Going from C33A C66U to G31U U49C, the self-cleavage falls from 0.901 to 0.731.

Going from G31U U49A to C32U U69G, the self-cleavage rises from 0.71 to 1.03.

Going from C32U U69C to C32A U69C, the self-cleavage falls from 1.06 to 1.03.

First: C32U G58A
Second: C32A G37C
The self-cleavage of the first is higher: 0.983 for the first, 0.336 for the second.

Going from C32G C39U to C32U A59G, the self-cleavage rises from 0.332 to 0.954.

Compared with C32U A59C, C32U A59U is higher in self-cleavage: 0.687 for the first, 0.785 for the second.

First: C32U C57G
Second: C32U C57U
The self-cleavage of the first is higher: 0.335 for the first, 0.327 for the second.

Going from C32G A52C to C32U C39U, the self-cleavage rises from 0.435 to 0.937.

First: C32U U61C
Second: C32U U61G
The self-cleavage of the first is higher: 0.856 for the first, 0.829 for the second.

Going from C32U U53G to C32U U53A, the self-cleavage rises from 0.967 to 0.982.

Compared with C33A G47C, C33A G47A is lower in self-cleavage: 0.946 for the first, 0.925 for the second.

First: C32A U46A
Second: C32A U46G
The self-cleavage of the first is lower: 0.574 for the first, 0.729 for the second.

Going from C32A U46C to C32U G68U, the self-cleavage rises from 0.776 to 1.02.

Compared with C32U G68C, C32U G68A is lower in self-cleavage: 1.02 for the first, 0.977 for the second.

Compared with C32G G58A, C32G C63A is lower in self-cleavage: 0.44 for the first, 0.3 for the second.

Going from C32A G48U to C32A G48A, the self-cleavage falls from 0.901 to 0.875.

Going from C32A G48C to C32A U61A, the self-cleavage falls from 0.862 to 0.406.

Going from C32A U61G to C32A U61C, the self-cleavage falls from 0.421 to 0.365.

Going from C33G C63U to C33G C63G, the self-cleavage falls from 0.632 to 0.384.

First: C33A U43G
Second: C33A U43C
The self-cleavage of the first is lower: 0.361 for the first, 0.461 for the second.

First: C32A C63G
Second: C32A C63U
The self-cleavage of the first is lower: 0.344 for the first, 0.772 for the second.

First: C33A G48C
Second: C33A G48U
The self-cleavage of the first is lower: 0.898 for the first, 0.929 for the second.

Going from C33G G50C to C33G G50U, the self-cleavage falls from 0.661 to 0.578.

Compared with C33G G50A, C32G A59U is lower in self-cleavage: 0.687 for the first, 0.206 for the second.

First: C32G A59G
Second: C32G G41A
The self-cleavage of the first is higher: 0.586 for the first, 0.35 for the second.

C32G G41C and C32G A60G are the same in self-cleavage: 0.267 for the first, 0.267 for the second.

Compared with C32U U64G, C32U U67A is lower in self-cleavage: 1.01 for the first, 0.987 for the second.

Going from C32U C66U to C32U C66A, the self-cleavage falls from 1 to 0.893.

Going from C32U C66G to C33G C54G, the self-cleavage falls from 0.923 to 0.338.

First: C33G C54U
Second: C33G A42U
The self-cleavage of the first is higher: 0.727 for the first, 0.556 for the second.

Going from C32A U36C to C32A U36A, the self-cleavage falls from 0.593 to 0.275.

Going from C33A C34G to C33A C34A, the self-cleavage rises from 0.229 to 0.331.

Going from C32G U67G to C32G U67A, the self-cleavage falls from 0.584 to 0.525.

First: C32G U67C
Second: C32U G47U
The self-cleavage of the first is lower: 0.536 for the first, 1.01 for the second.

Compared with C32U G37U, C33A C54G is higher in self-cleavage: 0.292 for the first, 0.301 for the second.

Going from C33A C54U to C33A C54A, the self-cleavage falls from 0.723 to 0.326.

Compared with C32G U61A, C32A U53C is higher in self-cleavage: 0.292 for the first, 0.455 for the second.

First: C32A U53G
Second: C33A U38G
The self-cleavage of the first is higher: 0.419 for the first, 0.212 for the second.

Variant C32A G68U has a self-cleavage of 1.01.
